pKd: −log10 of the molar value.
Columns and labels:
Assay in all cases: IEDB peptide-MHC binding, purified MHC/competitive/radioactivity; filed as Kd, often an IC50 or EC50 that approximates it; ≥ and ≤ were set here for values at or beyond the usual limits of such assays
HLA-A*02:03 = target: HLA-A*02:03
HLA-A*03:01 = target: HLA-A*03:01
HLA-A*11:01 = target: HLA-A*11:01
HLA-A*31:01 = target: HLA-A*31:01
HLA-A*33:01 = target: HLA-A*33:01
HLA-A*68:01 = target: HLA-A*68:01
HLA-A*02:06 = conditions: source organism: Dengue virus 1 Brazil/97-11/1997
[1] = source organism: Dengue virus 3 Martinique/1243/1999
[2] = source organism: Vaccinia virus WR
[3] = source organism: SARS coronavirus Tor2
[4] = source organism: Vaccinia virus Copenhagen
[5] = source organism: Triticum aestivum
[6] = source organism: Mammarenavirus whitewaterense
[7] = source organism: Lassa virus Josiah

Sequence | pKd (HLA-A*03:01; [2]) | pKd (HLA-A*11:01; [2]) | pKd (HLA-A*31:01; [2]) | pKd (HLA-A*33:01; [2]) | pKd (HLA-A*68:01; [2]) | also measured
VMKDGRVLV | – | – | – | – | – | pKd (HLA-A*02:03; source organism: Dengue virus 2 Jamaica/1409/1983): 7.29
QLCDHRLMSA | – | – | – | – | – | pKd (HLA-A*02:03; [1]): 7.27
SSYIDFENTK | 6.20 | 9.80 | 6.86 | 6.41 | 7.63 | –
RSDGYFLKIK | 4.98 | 5.81 | 5.26 | ≤ 4.15 | ≤ 4.15 | –
QMREIITGNK | 7.80 | 5.77 | 5.71 | ≤ 4.32 | 4.91 | –
ATSSFREKSR | 7.23 | 8.86 | 8.44 | 6.79 | 8.72 | –
YSSMTSDSK | 5.70 | 7.98 | 5.31 | ≤ 4.67 | 8.62 | –
ITAKETLYR | – | – | – | – | – | pKd (HLA-A*03:01; [3]): 6.88; pKd (HLA-A*11:01; [3]): 7.74; pKd (HLA-A*31:01; [3]): 6.71; pKd (HLA-A*33:01; [3]): 5.97; pKd (HLA-A*68:01; [3]): 7.81
KSLNRQTVSR | 7.06 | 6.73 | 8.11 | 5.88 | 5.15 | –
SVLNDILSR | – | – | – | – | – | pKd (HLA-A*03:01; [3]): 5.11; pKd (HLA-A*11:01; [3]): 6.83; pKd (HLA-A*31:01; [3]): 5.94; pKd (HLA-A*33:01; [3]): 5.25; pKd (HLA-A*68:01; [3]): 5.37
KSTQSVLCVK | 7.22 | 9.30 | 7.05 | 4.94 | 7.58 | –
SLLRSTSQK | – | – | – | – | – | pKd (HLA-A*03:01; [3]): 8.59; pKd (HLA-A*11:01; [3]): 7.89; pKd (HLA-A*31:01; [3]): 6.10; pKd (HLA-A*33:01; [3]): 4.83; pKd (HLA-A*68:01; [3]): 5.52
KLMEEYLRR | 7.94 | 8.01 | 8.25 | ≤ 4.66 | 5.72 | –
ILRNYLRLY | 6.19 | 5.34 | 5.08 | 5.52 | ≤ 4.49 | –
NTFPNITLK | – | – | – | – | – | pKd (HLA-A*03:01; [4]): 7.27; pKd (HLA-A*11:01; [4]): 8.03; pKd (HLA-A*31:01; [4]): 6.23; pKd (HLA-A*33:01; [4]): 6.79; pKd (HLA-A*68:01; [4]): 9.11
FSGKEPISDY | ≤ 4.15 | ≤ 4.28 | ≤ 4.15 | ≤ 4.15 | ≤ 4.17 | –
FFAYVMNIER | 5.95 | 4.97 | 6.98 | 7.82 | 8.49 | –
LAELLEMKY | 4.84 | ≤ 4.11 | ≤ 4.11 | ≤ 4.11 | ≤ 4.11 | –

Sequence | pKd (HLA-A*03:01; [2]) | pKd (HLA-A*11:01; [2]) | pKd (HLA-A*31:01; [2]) | pKd (HLA-A*33:01; [2]) | pKd (HLA-A*68:01; [2]) | also measured
PISASDMQK | 5.49 | 6.79 | 6.55 | 5.14 | 5.05 | –
TTIKPVSYK | – | – | – | – | – | pKd (HLA-A*03:01; [3]): 8.69; pKd (HLA-A*11:01; [3]): 9.12; pKd (HLA-A*31:01; [3]): 6.99; pKd (HLA-A*33:01; [3]): 6.84; pKd (HLA-A*68:01; [3]): 8.82
LSDIISAEK | 6.02 | 7.47 | 5.74 | 4.90 | 6.73 | –
NQAAILMGL | – | – | – | – | – | pKd (HLA-A*02:06): 7.90
AIILHQQQK | – | – | – | – | – | pKd (HLA-A*03:01; [5]): 6.98; pKd (HLA-A*11:01; [5]): 7.42; pKd (HLA-A*31:01; [5]): ≤ 4.69; pKd (HLA-A*33:01; [5]): ≤ 4.11; pKd (HLA-A*68:01; [5]): 6.03
QKCGELLEFH | – | – | – | – | – | pKd (HLA-A*03:01; [6]): ≤ 4.15; pKd (HLA-A*11:01; [6]): ≤ 4.16; pKd (HLA-A*31:01; [6]): 4.95; pKd (HLA-A*33:01; [6]): ≤ 4.15; pKd (HLA-A*68:01; [6]): ≤ 4.15
TLSERISSK | 8.21 | 8.54 | 5.64 | 5.00 | 7.32 | –
VSMMSMYGK | 7.82 | 8.93 | 6.95 | ≤ 4.63 | 8.30 | –
ILSKWHTSAR | 7.44 | 5.45 | 6.90 | 6.40 | 6.07 | –
GLILFVLALY | ≤ 4.66 | 5.14 | ≤ 4.36 | ≤ 4.57 | 6.34 | –
TSEKYSKGY | ≤ 4.11 | ≤ 4.11 | ≤ 4.11 | ≤ 4.11 | ≤ 4.11 | –
GFDAWFSQR | – | – | – | – | – | pKd (HLA-A*03:01; [3]): 4.75; pKd (HLA-A*11:01; [3]): ≤ 4.52; pKd (HLA-A*31:01; [3]): 6.88; pKd (HLA-A*33:01; [3]): 6.18; pKd (HLA-A*68:01; [3]): 5.37
WLSYFVASFR | – | – | – | – | – | pKd (HLA-A*03:01; [3]): 7.25; pKd (HLA-A*11:01; [3]): 7.84; pKd (HLA-A*31:01; [3]): 9.34; pKd (HLA-A*33:01; [3]): 7.87; pKd (HLA-A*68:01; [3]): 9.31
RMGMGVTYL | – | – | – | – | – | pKd (HLA-A*02:03; [1]): 6.94
SVLRAVLPR | – | – | – | – | – | pKd (HLA-A*03:01; [7]): 6.68; pKd (HLA-A*11:01; [7]): 8.05; pKd (HLA-A*31:01; [7]): 7.97; pKd (HLA-A*33:01; [7]): 6.27; pKd (HLA-A*68:01; [7]): 7.18
KATTQIAPK | 7.34 | 8.32 | 7.06 | ≤ 4.41 | 5.15 | –
KSFNHVLKRK | – | – | – | – | – | pKd (HLA-A*03:01; [3]): 9.00; pKd (HLA-A*11:01; [3]): 8.21; pKd (HLA-A*31:01; [3]): 7.17; pKd (HLA-A*33:01; [3]): ≤ 4.15; pKd (HLA-A*68:01; [3]): 5.80
FLSGKGLGKT | – | – | – | – | – | pKd (HLA-A*02:03; source organism: Dengue virus 1 Brazil/97-11/1997): 7.49

Reference: the Immune Epitope Database (IEDB)
